For 1 substance, glycoprotein specifically bound results are on record in article PMC2111714.

The target in this test is Cross-linked succinyl Con A (resuccinylated) (Canavalia ensiformis (jack bean)). Description: radioligand binding.

Take “Dolichos biflorus lectin (natural protein)”: the glycoprotein specifically bound stood at 96 ng/plate.
